Experiment [1] has as its target mouse tissue transglutaminase 2 C-terminal D3D4 domains (mTG2 D3D4) (mouse) (UniProt P21981). As to the kind of experiment: bead-binding assay read by flow cytometry; titration of monomeric biotinylated GPR56 fragments on TG2 D3D4-coated M280 beads; detected with neutravidin-650; one-to-one binding fit; apparent KD.
Experiment [2] has as its target T1, mouse tissue transglutaminase 2 C-terminal D3D4 domains (mTG2 D3D4) (mouse, UniProt P21981 471-686, biotin on the AVI-tag).
T1 construct: tissue transglutaminase 2 (TG2), mouse, domains D3 and D4, residues T471-A686; Used on M280 beads, or tetramerized with neutravidin-650 to stain cells; not shown: AVI-tag, N-terminal, kept
T1 sequence (looked up): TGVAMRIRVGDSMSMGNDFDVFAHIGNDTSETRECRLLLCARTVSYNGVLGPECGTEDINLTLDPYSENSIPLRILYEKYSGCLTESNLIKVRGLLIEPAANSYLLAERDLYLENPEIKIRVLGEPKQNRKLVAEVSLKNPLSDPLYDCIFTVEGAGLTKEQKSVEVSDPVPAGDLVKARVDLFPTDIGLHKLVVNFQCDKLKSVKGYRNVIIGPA
The description is as above. As to conditions: both partners purified.

The target of experiment [3] is T2, mouse tissue transglutaminase 2 C-terminal D3D4 domains (mTG2 D3D4) (mouse, UniProt P21981 471-686, biotin on the AVI-tag).
T2 chain: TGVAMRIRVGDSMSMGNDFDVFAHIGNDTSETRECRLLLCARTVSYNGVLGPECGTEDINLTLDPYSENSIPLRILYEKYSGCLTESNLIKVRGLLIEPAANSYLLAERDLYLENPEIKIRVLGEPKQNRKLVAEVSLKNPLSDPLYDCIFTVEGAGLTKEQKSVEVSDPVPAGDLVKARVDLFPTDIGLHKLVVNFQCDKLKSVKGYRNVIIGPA
In words: FACS.

Results on five molecules are retold here after paper PMC7547085, “Specific and direct modulation of the interaction between adhesion GPCR GPR56/ADGRG1 and tissue transglutaminase 2 using synthetic ligands” (Scientific Reports, 2020).

Regarding “human GPR56 ECR H89A (domain or fragment)”, the Kd in experiment [1] was determined as 790 nM.

B1: human GPR56/ADGRG1 extracellular region (ECR), wild type (domain or fragment)
chain: RGHREDFRFCSQRNQTHRSSLHYKPTPDLRISIENSEEALTVHAPFPAAHPASRSFPDPRGLYHFCLYWNRHAGRLHLLYGKRDFLLSDKASSLLCFQHQEESLAQGPPLLATSVTSWWSPQNISLPSAASFTFSFHSPPHTAAHNASVDMCELKRDLQLLSQFLKHPQKASRRPSAAPASQQLQSLESKLTSVRFMGDMVSFEEDRINATVWKLQPTAGLQDLHIHSRQEEEQSEIMEYSVLLPRTLFQRTKGRSGEAEKRLLLVDFSSQALFQDKNSSQVLGEKVLGIVVQNTKVANLTEPVVLTFQHQLQPKNVTLQCVFWVEDPTLSSPGHWSSAGCETVRRETQTSCFCNHLTYFAVLMVSSVEVDAVHKH
modifications: biotin on the AVI-tag
In the case of B1, in experiment [2], the Kd is 330 ± 15 nM.

B2: mouse GPR56 ECR S150A (domain or fragment)
chain: GSPREDFRFCGQRNQTQQSTLHYDQSSEPHIFVWNTEETLTIRAPFLAAPDIPRFFPEPRGLYHFCLYWSRHTGRLHLRYGKHDYLLSSQASRLLCFQKQEQSLKQGAPLIATSVSSWQIPQNTALPGAPSFIFSFHNAPHKVSHNASVDMCDLKKELQQLSRYLQHPQKAAKRPTAAFISQQLQSLESKLTSVSFLGDTLSFEEDRVNATVWKLPPTAGLEDLHIHSQKEEEQSEVQAYSLLLPRAVFQQTRGRRRDDAKRLLVVDFSSQALFQDKNSSQVLGEKVLGIVVQNTKVTNLSDPVVLTFQHQPQPKNVTLQCVFWVEDPASSSTGSWSSAGCETVSRDTQTSCLCNHLTYFAVLMVSSTEVEATHKHY
modifications: biotin on the AVI-tag
B2 showed a Kd in experiment [3] of 11 nM. Besides, the fold increase in affinity against wild type in experiment [1] turned out to be 40 fold.

B3: mouse GPR56/ADGRG1 extracellular region (ECR), wild type (domain or fragment)
chain: PREDFRFCGQRNQTQQSTLHYDQSSEPHIFVWNTEETLTIRAPFLAAPDIPRFFPEPRGLYHFCLYWSRHTGRLHLRYGKHDYLLSSQASRLLCFQKQEQSLKQGAPLIATSVSSWQIPQNTSLPGAPSFIFSFHNAPHKVSHNASVDMCDLKKELQQLSRYLQHPQKAAKRPTAAFISQQLQSLESKLTSVSFLGDTLSFEEDRVNATVWKLPPTAGLEDLHIHSQKEEEQSEVQAYSLLLPRAVFQQTRGRRRDDAKRLLVVDFSSQALFQDKNSSQVLGEKVLGIVVQNTKVTNLSDPVVLTFQHQPQPKNVTLQCVFWVEDPASSSTGSWSSAGCETVSRDTQTSCLCNHLTYFAVLMVS
modifications: biotin on the AVI-tag
On to B3, for which the Kd in experiment [2] turned out to be 440 ± 20 nM.

B4: mouse GPR56 ECR H89A (domain or fragment)
chain: PREDFRFCGQRNQTQQSTLHYDQSSEPHIFVWNTEETLTIRAPFLAAPDIPRFFPEPRGLYAFCLYWSRHTGRLHLRYGKHDYLLSSQASRLLCFQKQEQSLKQGAPLIATSVSSWQIPQNTSLPGAPSFIFSFHNAPHKVSHNASVDMCDLKKELQQLSRYLQHPQKAAKRPTAAFISQQLQSLESKLTSVSFLGDTLSFEEDRVNATVWKLPPTAGLEDLHIHSQKEEEQSEVQAYSLLLPRAVFQQTRGRRRDDAKRLLVVDFSSQALFQDKNSSQVLGEKVLGIVVQNTKVTNLSDPVVLTFQHQPQPKNVTLQCVFWVEDPASSSTGSWSSAGCETVSRDTQTSCLCNHLTYFAVLMVS
modifications: biotin on the AVI-tag
As for B4, the Kd in experiment [2] came out at 880 ± 80 nM.
